From PMC6033852

How the values were obtained:
[1] = biological target: Class F flavodiiron protein CD1623 from Clostridium difficile 630 (FDP_F) (Clostridium difficile 630); experiment: SEC; each protein loaded separately at room temperature on a 25 mL Superdex S-200 10/300 GL column; 20 mM Tris-HCl pH 7.5, 18% glycerol, 150 mM NaCl; calibrated with mass standards; data not shown
[2] = biological target: C-terminal domains of the flavodiiron protein CD1623 from Clostridium difficile 630 (FDP_F_Cter), residues 401-843 (Clostridium difficile 630); experiment: as above

Question: Which stoichiometry N [1] does the source give for “Class F flavodiiron protein CD1623 from Clostridium difficile 630 (FDP_F) (enzyme)” here?
Answer: 2

Question: For “C-terminal domains of the flavodiiron protein CD1623 from Clostridium difficile 630 (FDP_F_Cter), residues 401-843 (domain or fragment)”, which stoichiometry N [2] is on record?
Answer: 2
